For test [1], the target named is T1, human CD40 on HEK293A/human CD40 cells (human, UniProt P25942 21-277). The experiment in a line: cell-based or functional assay.
For test [2], the target named is T2, mouse CD40 on HEK293A cells (mouse, UniProt P27512 20-289).
T2 sequence: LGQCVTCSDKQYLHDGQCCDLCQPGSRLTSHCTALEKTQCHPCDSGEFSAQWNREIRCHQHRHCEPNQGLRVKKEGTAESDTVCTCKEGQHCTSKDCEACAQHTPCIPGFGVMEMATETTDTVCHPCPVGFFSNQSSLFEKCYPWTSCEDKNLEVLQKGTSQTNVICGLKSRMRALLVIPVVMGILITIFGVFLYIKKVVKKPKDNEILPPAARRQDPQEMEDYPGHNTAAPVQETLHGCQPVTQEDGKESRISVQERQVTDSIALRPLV
The experiment in a line: FACS on HEK293A cells expressing mouse CD40. Here is the method:
(§1) The bispecific antibodies as prepared above were tested for their binding capability to cell surface human, monkey and mouse CD40 proteins by FACS, using the HEK293A cells prepared in Example 1 that stably expressed human, monkey or mouse CD40. Briefly, a 96-well plate was seeded with 10⁵ HEK293A cells in 50 μl PBS, and then added with 100 μl serially diluted anti-CD40 antibody 714VH2VL2 and the bispecific antibodies of the disclosure (starting concentration at 40 μg/ml). After incubation at 4° C. for 1 h, the plate was washed by PBST for 3 times. The plate was added with 1:500 diluted APC-goat anti-mouse IgG (Cat #:405308, BioLegen, USA), incubated at 4° for 1 h, washed with PBS for 3 times, and subjected to fluorescence measurement in a FACS machine (BD).

The target in test [3] is T1, human CD40 on HEK293A/human CD40 cells. Description: FACS on HEK293A/human CD40 cells. How it is done:
as §1

Test [4] shares this target. Description: FACS on HEK293A/human CD40 cells. Here is the method: as §1
(§2) Following the protocols in Example 4 and Example 5, the bi- or multi-specific antibodies of the disclosure were tested for their binding capability to human PD-L1 and human CD40 proteins by FACS using the HEK293A cells prepared in Example 1 that stably expressed human PD-L1 or human CD40.
This is another data set of the same source.

Test [5] deals with T3, monkey CD40 on HEK293A/monkey CD40 cells (monkey, UniProt P25942 21-277 (human entry)).
T3 chain: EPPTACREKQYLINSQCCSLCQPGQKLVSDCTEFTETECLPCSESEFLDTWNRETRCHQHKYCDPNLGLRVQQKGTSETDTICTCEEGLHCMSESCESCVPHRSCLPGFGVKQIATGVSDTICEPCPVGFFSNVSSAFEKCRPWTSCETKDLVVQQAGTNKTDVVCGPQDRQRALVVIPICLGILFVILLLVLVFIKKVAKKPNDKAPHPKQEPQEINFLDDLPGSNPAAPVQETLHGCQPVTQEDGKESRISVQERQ
Description: FACS on HEK293A/monkey CD40 cells. How it is done: as §1

In test [6] the target is T4, human PD-L1 on HEK293A/human PD-L1 cells (human, UniProt Q9NZQ7 19-290). The experiment in a line: FACS on HEK293A/human PD-L1 cells. Here is the method:
as §1
(§3) Following the protocol of Example 4, the bispecific antibodies were tested for their binding capability to cell surface human, or monkey PD-L1 proteins by FACS, using the HEK293A cells prepared in Example 1 that stably expressed human or monkey […].

Test [7] deals with T4, human PD-L1 on HEK293A/human PD-L1 cells. Description: FACS on HEK293A/human PD-L1 cells. How it is done: as §1, §2
This is another data set of the same source.

For test [8] the target is unchanged. Description: FACS on HEK293A/human PD-L1 cells. Here is the method:
as §1, §2
This is another data set of the same source.

Test [9] deals with monkey PD-L1 on HEK293A/monkey PD-L1 cells (monkey, UniProt Q9NZQ7 19-290 (human entry)). The experiment in a line: FACS on HEK293A/monkey PD-L1 cells. How it is done: as §1, §3
monkey PD-L1 on HEK293A/monkey PD-L1 cells, sequence (Q9NZQ7 other isoform, or with tags, fused parts or gaps limits assumed): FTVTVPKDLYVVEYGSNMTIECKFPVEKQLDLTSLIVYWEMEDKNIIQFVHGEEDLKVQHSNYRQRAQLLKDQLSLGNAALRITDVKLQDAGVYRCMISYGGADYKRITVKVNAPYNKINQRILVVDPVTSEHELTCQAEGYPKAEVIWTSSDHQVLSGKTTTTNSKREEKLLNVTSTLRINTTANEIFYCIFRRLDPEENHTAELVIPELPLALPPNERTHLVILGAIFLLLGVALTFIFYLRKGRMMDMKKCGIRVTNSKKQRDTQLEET
Test [10] addresses T5, human CD40-his protein (human, UniProt P25942 21-193).
T5 construct: Bought protein; also called human CD40 protein; CD40 molecules; not shown: his tag
The experiment in a line: SPR (BIAcore 8K), human CD40-his coupled to CM5 chip, antibody injected. From the text:
(§4) Using BIAcore™ 8K instrument (GE Life Sciences, US), the binding affinity of the bi- or multi-specific antibodies to human CD40 and PD-L1 was quantitatively measured. Briefly, 100-200 response units (RU) of human CD40-his protein (Cat #:10774-1108H, Sino Biological, CN) or human PD-L1-his protein (Cat #:10084-H08H, Sino Biological, CN) were coupled to CM5 biosensor chips (Cat #:BR-1005-30, GE Life Sciences. USA). The un-reacted groups were then blocked with 1 M ethanolamine. Serially diluted antibodies at concentrations ranging from 0.3 μM to 10 μM were injected into the SPR running buffer (HBS-EP buffer, pH7.4, Cat #:BR-1006-69, GE Life Sciences, USA) at 30 μL/min. The binding affinity was calculated with the RUs of blank controls subtracted, and the association rate (kₐ) and dissociation rate (kd) were determined using the one-to-one Langmuir binding model (BIA Evaluation Software, GE Life Sciences, USA). The equilibrium dissociation constant KD was calculated as the kd/kₐ ratio.

Test [11] addresses T6, human PD-L1-his protein (human, UniProt Q9NZQ7 19-238).
T6 construct: extracellular domain; also called human PD-L1 (ECD)-his; human PD-L1 protein; not shown: his tag
Description: SPR (BIAcore 8K), human PD-L1-his coupled to CM5 chip, antibody injected.
Source text: as §4
(In general: In SPR one partner is held on a chip, and binding of the other changes the refractive index at the surface.)

Test [12] addresses T4, human PD-L1 on HEK293A/human PD-L1 cells. The experiment in a line: FACS blocking assay on HEK293A/human PD-L1 cells; blocked ligand PD-1-Fc. How it is done: (§5) The bispecific antibodies were tested for their blocking activity on PD-1-PD-L1 binding by FACS using the HEK293A cells stably expressing human PD-L1 molecules as prepared in Example 1. Briefly, a 96-well plate was seeded with 10⁵ HEK293A/human PD-L1 cells in 100 μl cell culture medium, and then added with 50 μl serially diluted anti-PD-L1 antibody 56E5VH5VL4 or MBS307-3 molecules. After incubation at 4° C. for 1 h. the plate was washed with PBST for 3 times, added with 100 μl 200 μg/ml PD-1-Fc fusion proteins (Cat #:10377-10211, Sino Biological, CN), incubated at 4° C. for 1 h, washed with PBST for 3 times, and added with 1:500 diluted PE-goat anti-human IgG (Cat #:PAI-86078, Thermofisher, USA). After incubation at 4° C. for 1 h, the plate was washed with PBST for 3 times and measured for fluorescence using a FACS machine (BD).

Test [13] shares this target. The test is described as above. How it is done: as §5
(§6) Following the protocol of Example 7, the bi- or multi-specific antibodies were tested for their capability to block PD-1-PD-L1 binding by FACS, using the HEK293A cells prepared in Example 1 that stably expressed human PD-L1 molecules.
This is another data set of the same source.

Test [14] deals with T1, human CD40 on HEK293A/human CD40 cells. Description: cell-based or functional assay. This is another data set of the same source.
For test [15], the target named is T4, human PD-L1 on HEK293A/human PD-L1 cells. Description: FACS blocking assay on HEK293A/human PD-L1 cells; blocked ligand PD-1-Fc. Here is the method:
as §5, §6
The source holds these as a separate data set.

Like-named read-outs stand apart in the source and are kept apart here.

T4 sequence (Q9NZQ7 19-290 limits assumed): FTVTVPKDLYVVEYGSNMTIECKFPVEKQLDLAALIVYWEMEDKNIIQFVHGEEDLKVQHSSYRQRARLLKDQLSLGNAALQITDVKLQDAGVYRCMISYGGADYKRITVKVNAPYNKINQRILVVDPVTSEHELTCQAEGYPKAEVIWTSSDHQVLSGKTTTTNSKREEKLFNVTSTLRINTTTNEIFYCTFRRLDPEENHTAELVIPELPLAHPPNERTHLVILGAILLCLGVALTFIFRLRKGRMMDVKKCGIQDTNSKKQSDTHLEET
T6 sequence (Q9NZQ7 19-238): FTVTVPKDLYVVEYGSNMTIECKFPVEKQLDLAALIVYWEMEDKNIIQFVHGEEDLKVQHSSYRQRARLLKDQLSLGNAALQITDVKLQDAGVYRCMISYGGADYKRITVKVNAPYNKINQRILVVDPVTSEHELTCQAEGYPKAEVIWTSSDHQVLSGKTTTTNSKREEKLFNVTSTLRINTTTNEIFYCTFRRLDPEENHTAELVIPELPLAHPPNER

B1: MBS307-3 (bispecific antibody, human IgG1, kappa, L234A L235A)
heavy: QVQLQESGPGLVKPSDTLSLTCAVSGYSITTNYYWNWIRQPPGKGLEWMGYIKYDGSNNYNPSLKNRITISVDTSKNQFSLKLSSVTAVDTAVYYCARLDYWGQGTLVTVSSASTKGPSVFPLAPSSKSTSGGTAALGCLVKDYFPEPVTVSWNSGALTSGVHTFPAVLQSSGLYSLSSVVTVPSSSLGTQTYICNVNHKPSNTKVDKKVEPKSCDKTHTCPPCPAPEAAGGPSVFLFPPKPKDTLMISRTPEVTCVVVDVSHEDPEVKFNWYVDGVEVHNAKTKPREEQYNSTYRVVSVLTVLHQDWLNGKEYKCKVSNKALGAPIEKTISKAKGQPREPQVYTLPPSREEMTKNQVSLTCLVKGFYPSDIAVEWESNGQPENNYKTTPPVLDSDGSFFLYSKLTVDKSRWQQGNVFSCSVMHEALHNHYTQKSLSLSPGSGGGGSGGGGSQVQLQESGPGLVKPSQTLSLTCTVSGGSITSDYWNWIRQHPGNKLEYMGYISYTGSTYYNPSLKSRISITRDTSKNQFSLKLSSVTTADTAVYYCARYRDWDVRAMDYWGQGTTVTVSSGGGGSGGGGSGGGGSGGGGSDIVMTQSPDSLAVSLGEKVTMNCKSSQSLLISGNQKNFLTWYQQKPGQPPKLLIYWASTRESGVPDRFSGSGSGTDFTLTISSLQAEDEAVYYCQNDFGFPFTFGQGTKLTAK
light: DVVLTQSPLSLPVTLGQPASISCRSSQSLENSNGNTFLNWFQQRPGQSPRLLIYKVSNRFSGVPDRFSGSGSGTDFTLKISRVEAEDVGVYYCLQVTHVPFTFGQGTKLEIKRTVAAPSVFIFPPSDEQLKSGTASVVCLLNNFYPREAKVQWKVDNALQSGNSQESVTEQDSKDSTYSLSSTLTLSKADYEKHKVYACEVTHQGLSSPVTKSFNRGEC
notes: Symmetric: full-length anti-CD40 antibody with an anti-PD-L1 scFv (56E5VH5VL4) at the C terminus of each heavy chain
Consider B1, for which the “EC50 (read off the curve); HEK-Blue/CD40 reporter, OD630, plate coated with human PD-L1-his” value in test [1] was around 0.1 µg/mL. Moreover, in test [2], the binding result is listed as “no binding (tested: starting concentration at 40 µg/ml)”. Also, the EC50 (read off the curve) – broadly, the concentration giving half of the maximal effect – in test [3] is around 0.1 µg/mL; in test [4], around 0.1 µg/mL; in test [5], around 0.1 µg/mL; in test [6], around 0.1 µg/mL; in test [7], around 0.2 µg/mL; in test [8] it was around 0.1 µg/mL. In [9], the “EC50 (read off the curve)” value is around 0.09 µg/mL. For the same molecule, the figures for the Kd in test [10] and in test [11] were 1.42 nM and 0.321 nM, respectively. Further, the “IC50 (read off the curve)” value is around 0.1 µg/mL in test [12] and around 0.08 µg/mL in test [13].

B2: MBS307-11 (bispecific antibody, human IgG1, kappa, L234A L235A)
heavy 1: QVQLQESGPGLVKPSDTLSLTCAVSGYSITTNYYWNWIRQPPGKGLEWMGYIKYDGSNNYNPSLKNRITISVDTSKNQFSLKLSSVTAVDTAVYYCARLDYWGQGTLVTVSSASTKGPSVFPLAPSSKSTSGGTAALGCLVKDYFPEPVTVSWNSGALTSGVHTFPAVLQSSGLYSLSSVVTVPSSSLGTQTYICNVNHKPSNTKVDKKVEPKSCDKTHTCPPCPAPEAAGGPSVFLFPPKPKDTLMISRTPEVTCVVVDVSHEDPEVKFNWYVDGVEVHNAKTKPREEQYNSTYRVVSVLTVLHQDWLNGKEYKCKVSNKALPAPIEKTISKAKGQPREPQVYTLPPSREEMTKNQVSLWCLVKGFYPSDIAVEWESNGQPENNYKTTPPVLDSDGSFFLYSKLTVDKSRWQQGNVFSCSVMHEALHNHYTQKSLSLSPGGGGGQVQLLESGGGLVQPGGSLRLSCAASGFAFSDYAMTWVRQAPGKGLEWVSTINSGGQSSSYLDSVKGRFTSSRDNSKNTLYLQMNSLRAEDTAVYYCAKGVYMPWKAPKGQGTLVTVSS
heavy 2: QVQLQESGPGLVKPSDTLSLTCAVSGYSITTNYYWNWIRQPPGKGLEWMGYIKYDGSNNYNPSLKNRITISVDTSKNQFSLKLSSVTAVDTAVYYCARLDYWGQGTLVTVSSASTKGPSVFPLAPSSKSTSGGTAALGCLVKDYFPEPVTVSWNSGALTSGVHTFPAVLQSSGLYSLSSVVTVPSSSLGTQTYICNVNHKPSNTKVDKKVEPKSCDKTHTCPPCPAPEAAGGPSVFLFPPKPKDTLMISRTPEVTCVVVDVSHEDPEVKFNWYVDGVEVHNAKTKPREEQYNSTYRVVSVLTVLHQDWLNGKEYKCKVSNKALPAPIEKTISKAKGQPREPQVYTLPPSREEMTKNQVSLSCAVKGFYPSDIAVEWESNGQPENNYKTTPPVLDSDGSFFLVSKLTVDKSRWQQGNVFSCSVMHEALHNHYTQKSLSLSPGGGGGQVQLVQSGAEVKKPGASVKVSCKASGYTFTDYHVNWVRQAPGQGLEWIGWIFPGSGRTFYTDKFKGRVTMTVDTSTSTVYMELSSLRSEDTAVYYCATDYGTSGYGLVYWGQGTTVTVSSGGGGSGGGGSGGGGSGGGGSDIQMTQSPSSLSASVGDRVTITCKASDRINNWLAWYQQKPGKAPKLLISGATSLETGVPSRFSGSGSGTDFTLTISSLQPEDEATYYCQQYWNIPFTFGQGTKLTAK
light: B1 light
notes: Asymmetric: knob chain with the anti-PD-L1 nanobody, hole chain with the 3C2VH6VL5 scFv; also called MBS307-11-1 + MBS307-11-2
As for B2, in test [14], the “EC50 (read off the curve); HEK-Blue/CD40 reporter, OD630, plate coated with human PD-L1-his” value was around 0.01 µg/mL. For the same molecule, the values for the Kd in test [10] and in [11] were 4.37 nM and 0.069 nM, respectively. In [15], the “IC50 (read off the curve)” value is around 0.01 µg/mL.

The values are drawn from patent US20240084027A1 (BEIJING MABWORKS, published 2024).
